Assay [1] has as its target human C3b (human) (UniProt P01024). Kind of assay: SPR; C3b (~250 RU) or C3d (~70 RU) amine coupled to adjacent flow cells of a Biacore C1 chip; FH preincubated with or without a 2-fold molar excess of PspCN injected (90 s, 30 μl/min, 400 s dissociation); 1:1 binding model. (SPR reads the build-up and loss of mass on a sensor chip optically.)
Assay [2] has the same target. The description is as above. This is another data set of the same source.
A further assay addresses human C3d (human) (UniProt P01024). Described as above.
Assay [3] concerns the target (D39)PspCN, D39 PspC residues 37-140 after removal of the His6-SUMO tag (Streptococcus pneumoniae D39). In words: SEC-MALS; 4.6 μM in PBS of FH, PspCN or a 1:1 complex; Superose12 10/300 GL column, 0.4 ml/min. On the technique in general: Size exclusion chromatography separates by hydrodynamic size, large species first.
The target of assay [4] is His6-SUMO-tagged D39 PspC residues 37-140 (Streptococcus pneumoniae D39). Kind of assay: SPR; PspC-derived proteins immobilised via N-terminal His6-SUMO tags on a Ni2+-loaded Biacore NTA chip (~150 RU); FH, rFH or rFH fragments flowed over (180 s, 100 μl/min, 1500 s dissociation); 25°C; 10 mM HEPES, 150 mM NaCl, 0.05% P20, pH 7.4, 50 μM EDTA; 1:1 binding model; equilibrium method for FH 8–9.

In assay [5] the target is plasma-derived human complement factor H (human) (UniProt P08603).
The target of the next assay is C3d C3d (Homo sapiens) (UniProt P01024). Conditions: cited from earlier work.
Chain of C3d C3d (Homo sapiens) (P01024 1002-1303): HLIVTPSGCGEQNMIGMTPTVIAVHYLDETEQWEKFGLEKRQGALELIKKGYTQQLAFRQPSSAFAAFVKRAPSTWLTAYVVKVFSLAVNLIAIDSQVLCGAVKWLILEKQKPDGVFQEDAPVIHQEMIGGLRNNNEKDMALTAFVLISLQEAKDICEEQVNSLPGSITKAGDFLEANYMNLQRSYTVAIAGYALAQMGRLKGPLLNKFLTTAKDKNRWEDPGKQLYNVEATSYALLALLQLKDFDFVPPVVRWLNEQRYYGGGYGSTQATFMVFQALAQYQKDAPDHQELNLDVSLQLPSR
In the next assay the target is C3b C3b (Homo sapiens) (UniProt P01024). To be noted: cited from earlier work.
Chain of C3b C3b (Homo sapiens) (P01024 566-670): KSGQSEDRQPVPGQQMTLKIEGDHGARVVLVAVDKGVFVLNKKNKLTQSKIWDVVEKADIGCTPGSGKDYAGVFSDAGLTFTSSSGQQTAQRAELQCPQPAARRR

In general, Kd refers to a measure of binding affinity in units of concentration. By stoichiometry N is commonly meant the number of molecules, sites or subunits per partner or assembly.

Read-outs that look alike come from different tables or passages of the source. Bounds are passed on as bounds.

Chain of human C3b (human) (P01024 23-667, chain 1 of 2): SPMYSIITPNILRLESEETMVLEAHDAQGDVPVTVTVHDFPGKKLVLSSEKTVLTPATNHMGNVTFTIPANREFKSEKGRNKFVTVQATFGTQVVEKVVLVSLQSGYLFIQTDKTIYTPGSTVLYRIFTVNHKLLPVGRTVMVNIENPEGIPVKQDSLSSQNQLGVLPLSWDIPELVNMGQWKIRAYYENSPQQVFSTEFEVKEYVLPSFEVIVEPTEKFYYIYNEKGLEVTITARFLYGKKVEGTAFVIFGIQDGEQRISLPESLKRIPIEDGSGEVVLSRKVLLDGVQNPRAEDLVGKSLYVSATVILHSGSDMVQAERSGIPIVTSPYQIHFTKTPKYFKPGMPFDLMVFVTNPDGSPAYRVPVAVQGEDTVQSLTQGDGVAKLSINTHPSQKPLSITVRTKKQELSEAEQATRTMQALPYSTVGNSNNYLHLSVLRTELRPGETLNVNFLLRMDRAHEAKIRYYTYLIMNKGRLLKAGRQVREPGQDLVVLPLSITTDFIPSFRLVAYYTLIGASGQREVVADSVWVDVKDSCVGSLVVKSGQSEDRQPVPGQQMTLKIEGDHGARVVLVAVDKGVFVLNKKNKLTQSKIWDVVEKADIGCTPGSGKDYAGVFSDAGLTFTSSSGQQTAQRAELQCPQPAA
Chain of human C3b (human) (P01024 749-1663, chain 2 of 2): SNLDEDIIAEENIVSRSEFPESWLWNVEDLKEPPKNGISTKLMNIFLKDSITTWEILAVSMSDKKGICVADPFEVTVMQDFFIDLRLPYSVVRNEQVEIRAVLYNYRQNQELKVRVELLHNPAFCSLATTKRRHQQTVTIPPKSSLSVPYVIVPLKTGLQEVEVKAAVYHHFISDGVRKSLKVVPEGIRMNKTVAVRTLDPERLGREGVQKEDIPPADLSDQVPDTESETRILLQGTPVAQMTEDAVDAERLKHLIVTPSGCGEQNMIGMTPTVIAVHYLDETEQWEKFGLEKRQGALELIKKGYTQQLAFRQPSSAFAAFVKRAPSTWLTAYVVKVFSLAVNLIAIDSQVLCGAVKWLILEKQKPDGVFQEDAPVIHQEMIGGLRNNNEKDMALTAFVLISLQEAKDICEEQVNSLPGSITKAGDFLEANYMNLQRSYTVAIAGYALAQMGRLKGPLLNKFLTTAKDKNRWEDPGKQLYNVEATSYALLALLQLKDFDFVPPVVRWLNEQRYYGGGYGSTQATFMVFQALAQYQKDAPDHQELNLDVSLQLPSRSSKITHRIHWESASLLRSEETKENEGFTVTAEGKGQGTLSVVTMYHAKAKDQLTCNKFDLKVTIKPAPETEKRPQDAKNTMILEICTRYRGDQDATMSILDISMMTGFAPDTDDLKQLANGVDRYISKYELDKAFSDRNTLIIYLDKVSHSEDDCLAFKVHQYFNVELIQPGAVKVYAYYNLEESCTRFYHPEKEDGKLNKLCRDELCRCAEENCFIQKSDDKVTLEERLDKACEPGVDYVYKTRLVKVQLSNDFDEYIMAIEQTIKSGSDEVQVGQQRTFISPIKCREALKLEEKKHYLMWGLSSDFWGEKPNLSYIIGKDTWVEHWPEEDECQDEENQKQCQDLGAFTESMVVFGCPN
Chain of human C3d (human) (P01024 1002-1303): as the sequence (P01024 1002-1303) above

With “(D39)PspCN:FH(D1119G) complex (from UniProt P08603 19-1231)”, the Kd stood at 320 nM with human C3b (human) [1] and 330 nM with human C3b (human) [2].
As for “(D39)PspCN:FH complex (plasma-derived FH) (from UniProt P08603 19-1231)”, in the assay with human C3b (human) [1], the Kd amounted to 160 nM and the ratio of KD values for FH versus FH-PspCN worked out at 2.04. This substance also came in with a Kd in the assay with human C3d (human) of 2300 nM.
With “plasma-derived human complement factor H (from UniProt P08603 19-1231) (natural protein)”, the stoichiometry N in assay [3] was 1 FH:PspCN. Besides, the dissociation over 30 min (off-rate) (% over 30 min) in assay [4] was less than 0.2.
Regarding “(Tigr4)PspC_(37–179):FH complex (from UniProt P08603 19-1231)”, the dissociation constant Kd came to 280 nM with human C3b (human) [1] and 1200 nM with human C3d (human).
As to “(D39)PspCN:rFH complex (from UniProt P08603 19-1231)”, the Kd with human C3b (human) [1] was 280 nM; in the assay with human C3d (human), 2200 nM.
Take “(D39)PspCN, D39 PspC residues 37-140 after removal of the His6-SUMO tag (domain or fragment)”: the inhibition of acidified-serum lysis of PNH-like (AET-treated) human erythrocytes by increasing concentrations of (D39)PspCN; FH of the serum in assay [5] stood at 28 nM.
In assay [4], FH 8–9 (domain or fragment) came in with a Kd of 30 nM.
For FH 8–15 (domain or fragment), the Kd in assay [4] was 1 nM.
As to “Complement factor H CCP 19-20 (from UniProt P08603)”, the Kd with C3d C3d (Homo sapiens) and with C3b C3b (Homo sapiens) was 2000 nM in each case.

The values are drawn from article PMC4635569.
